The data set in a line: yeast display, Sf9 membrane polyspecificity reagent, FACS + sequencing; frameworks hold sequencing errors. The method in brief: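 In a synthetic yeast display library (Saccharomyces cerevisiae BJ5465), nanobody expression was induced with galactose for 36–48 hours. FACS gates were set low and high (top ~1%) using anti-HA fluorescence for expression and streptavidin fluorescence for binding of the Sf9 membrane reagent. Each polyreactivity label is drawn from the gate of origin.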
For “QVQLVESGGGLVQAGGSLRLNCAASGNIFISYAMGWYRQAPGKERELVAAISRSGGSTYYADSVKGRFTISRDYAKNTVYLQMNSLKPEDTAVYYCAAYIGPGRYGSWGQGTQVTVSS”, the “polyreactivity (PSR sort gate)” value is “high polyreactivity”. Turning to “QVQLVESGGGLVQAGGSLRLSCAASGRTFYYNDMGWYRQAPGKERELVATISSGGSTYYADSVKGRFTISRDNAKNTVYLQMNSLKPEDTAVYYCAKRRRYDGWYAGPLYKYDYWGQGTQVTVSS”, the “polyreactivity (PSR sort gate)” value is “low polyreactivity”. For the sequence “QVQLVESGGGLVQAGGSLRLSCAASGSTFNYYAMGWDRQAPGTVRELVAAITRNGGRKYYADSVKGRFRLSRDNAKNTVYLQMNSLKPEETAVYYCATDTYSYRSIHDMGYWGQGTQVTVSS”, the “polyreactivity (PSR sort gate)” value is on record as “high polyreactivity”. As for “QVQLVESGGGLVQAGGSLRLSCAASGSTFVGYAMGWYRQAPGKEREFVAAITRGGSTNYADSVKGRFTISRDNAKNTVYLQMNSLKPEDTAVYYCAARDRREGFNFDYWGQGTQVTVSS”, the “polyreactivity (PSR sort gate)” value is “low polyreactivity”. On to “QVQLVESGGGLVQAGGSLRLSCAASGSIFPYYAMGWYRQAPGQEREFVASISSVTSTYADSVKGRFTISRDNAKNTVYLQMNSQKPEDPAVYYCAADRAYSWYSVSRYNYWGQGTQVTVSS”, for which the “polyreactivity (PSR sort gate)” value is “low polyreactivity”. Next, “QVQLVESGGGLVQAGGSLRLICAASGRTFYIYTMGWYREAPGKERELVAAISSSGDSTYYADSLKGRFTISRDNAKNTVYLQMNSLKPEDTAVYYCAAYPTYPDEYWGEGTQVTVSS”: “low polyreactivity”. Consider “QVQLVESGGGLVQAGGSLRLSCAASGRTFAGNAMGWYRQAPGKERELVAAISQGGGSTYYADSVKGRFTFSRDNATNSVYLQMNRLNPDDTAVYYCAAEIPRRWASFATLWYDYWGQGTQVTVSS”, for which the “polyreactivity (PSR sort gate)” value is “low polyreactivity”. Regarding “QVQLVESGGGLVQAGGSLHLSCAASGSIFPYNLMGWYRQAPGKERELVAAISNTGSTNYADSVKGRFTISRDNAMNTVYFQMNSLKPDDTAVYYCNADGSYGFWSLLDYDYWGQGTQVTVSS”, the “polyreactivity (PSR sort gate)” value is listed as “low polyreactivity”. Consider “QVQLVESGGGLVQAGGSLRLSCAASGGIFLSNAMGWSRQAPGKERELVAAISRSGGSTYYADSVKGRFTISRDNAKNTVYLQMNSLKPEDTAVYYCAARWTRNYGMNYWGQGTKVTVSS”, for which the “polyreactivity (PSR sort gate)” value was “high polyreactivity”. Next, “QVQLVESGGGLVQAGCSLRLSCAASGRTFARYAMGWSRQAPGKVRELVAGISRSGDSTHYADSVKGRFTISRDNAKNTVYLQMNSRKPEDTSVYYCHKETPTIGARKYEYWGQGTQVTVSS”: “low polyreactivity”. Consider “QVQLVESGGGLVQAGGSLRLSCAASGSIFTLYAMGWNRQAPGQERELVAAITRSGGSTYYADSVKGRFTSSRDNAKNTVYLQMNSLKPEDTAVYYCAADKAPYSTEGDYWGQGTQVTVSS”, for which the “polyreactivity (PSR sort gate)” value is given as “high polyreactivity”.

As for “QVQLVDSGGGLVQAGGSLRLSCAASGRIFYYYAMGWYRQAPGKERELVAAISWNGGTTYYAESVKGRFTISRDNAKNTVYLQINSLKPEDTAVYYCNAVLYRGPPGSRMDYWGQGTQVTVSS”, the “polyreactivity (PSR sort gate)” value is on record as “high polyreactivity”. Consider “QVQLVESGGGLVQAGGSLRLSCAASGRTFGYYAMGWYRQAPGKEREFVAAISSSGGSTYYADSVKGRFTISRDNAKNTVYLQMNSLKPEDTAVYYCAARRNYFYGYYYWGQGTQVTVSS”, for which the “polyreactivity (PSR sort gate)” value is “high polyreactivity”. Regarding “QVQLVESGGGLVQAGGSLRLSCAASGFTFHSYAMGWYRQAPGKERELVATISRSGGSTYYADSVKGRFTISRDNAKNTVYLQMNSLKPEDTAVYYCNKLLYGWSKPVGYDYYWGQGTQVTVSS”, the “polyreactivity (PSR sort gate)” value is recorded as “high polyreactivity”. The same measure for “QFQRVDSGGGLVQAGGSLRLSCAASGSTLAVNAMGWYRQAHGKERELVAAITRSGGRTYYADSLKWRFTISRDNAKNTVYLQMNSLKPEDTAVYYFGAKWYYPFIPKRTTRYGFDYWGHGTQVTVSS”: “high polyreactivity”; for “QVQLVESGGGLVQAGGSLRLSCAASGSIFGVYAMGWYRQAPGKERELVATISRSGAITYYADSVKGRFTISRDNAKNTVYLQMNSLKPEDTAVYYCAADFFSRDWGQGTQVTVSS”: “low polyreactivity”.
